The assay addresses T1, human FAPα (fibroblast activation protein-α) expressed on cells (human, UniProt Q12884 1-760).
T1 construct: also called cells expressing FAP
T1 sequence: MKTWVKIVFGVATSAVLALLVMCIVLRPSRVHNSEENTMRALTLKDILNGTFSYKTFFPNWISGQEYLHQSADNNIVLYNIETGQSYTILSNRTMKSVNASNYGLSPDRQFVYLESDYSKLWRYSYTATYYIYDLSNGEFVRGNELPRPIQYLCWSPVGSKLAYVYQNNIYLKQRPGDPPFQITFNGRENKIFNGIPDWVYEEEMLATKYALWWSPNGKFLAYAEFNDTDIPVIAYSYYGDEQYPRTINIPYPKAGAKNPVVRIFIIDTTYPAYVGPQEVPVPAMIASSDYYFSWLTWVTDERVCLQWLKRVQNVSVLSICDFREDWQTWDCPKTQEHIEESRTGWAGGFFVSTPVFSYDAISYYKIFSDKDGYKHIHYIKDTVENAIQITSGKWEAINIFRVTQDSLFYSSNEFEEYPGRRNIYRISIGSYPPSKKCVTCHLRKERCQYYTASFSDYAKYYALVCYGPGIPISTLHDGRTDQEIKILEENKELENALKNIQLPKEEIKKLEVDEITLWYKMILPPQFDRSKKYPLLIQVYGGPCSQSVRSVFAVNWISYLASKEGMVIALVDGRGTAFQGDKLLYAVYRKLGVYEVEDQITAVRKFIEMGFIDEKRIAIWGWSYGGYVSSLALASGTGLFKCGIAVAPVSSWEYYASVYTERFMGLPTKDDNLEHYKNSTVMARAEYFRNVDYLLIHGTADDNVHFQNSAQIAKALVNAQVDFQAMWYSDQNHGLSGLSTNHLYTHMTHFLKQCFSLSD
Kind of assay: flow cytometry on FAPα-expressing cells, PE-labeled anti-human IgG detection. Here is the method:
FACS analysis. FACS analysis was performed for purified antibodies. Binding of Expi293 expression supernatant or purified antibodies to FAPα and/or B7H3 expressing cells was determined by flow cytometry. lx […] were incubated for 1 hour at 4° C. with purified antibodies. After washing twice with cold FACS buffer (PBS containing 1% BSA and 0.1% sodium azide), cell surface bound antibody was detected by incubating the cells with phycoerythrin (PE)-labeled anti-human IgG antibody (Jackson Immuno, Cat #109-116-098) for 1 hour at 4° C. Cells were washed twice in FACS buffer and analyzed using Guava EasyCyte HT (Merck Millipore).

B1: P28832158 (antibody, human IgG1, kappa, V domains shown)
VH: QVQLVQSGAEVKKPGASVKVSCKASGYTFTMNIIHWVRQAPGQGLEWMGWIHPGSGAIKYAQKLQGRVTMTTDTSTSTAYMELRSLRSDDTAVYYCARHGGTGRGAMDYWGQGTLVTVSS
VL: EIVLTQSPGTLSLSPGERATLSCRASQSVSTSAYSYMHWYQQKPGQAPRLLIYLASNLESGIPDRFSGSGSGTDFTLTISRLEPEDFAVYYCQQSRELPYTFGQGTKLEIKR
notes: Produced in Expi293 cells; also called M-87_G1; VH6.32/VL7.00
B1: the binding result is recorded as “binds”.
